# Target: T1, human PD-1 (programmed cell death receptor 1) (human, UniProt Q15116 25-170, 15N-labeled in the AIDA-NMR assay; covalently labeled with a fluorophore in the MST assay)
# T1 construct: Programmed cell death receptor 1 (PD-1, CD279), human; In the cell-based ICB assays hPD-1 stands on Jurkat effector cells; also called hPD-1; CD279
# Assay: MST; hPD-1 covalently labeled with a fluorophore, incubated with increasing concentrations of unlabeled hPD-L1 or mPD-L1; two independent dilution series, KD model
# Settings: both partners purified
# T1 sequence (Q15116 25-170): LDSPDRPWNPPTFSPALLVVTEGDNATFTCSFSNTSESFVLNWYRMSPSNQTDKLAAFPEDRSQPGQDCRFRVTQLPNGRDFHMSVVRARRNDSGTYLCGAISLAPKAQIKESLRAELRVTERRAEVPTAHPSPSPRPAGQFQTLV
binder,measurement,value
"mouse PD-L1 (ligand, fluorescently labeled in the MST assay with antibodies, PD-L1, mouse; In the h/mICB assay mPD-L1 is endogenous on IFN-gamma-treated B16-F10/TCRAct cells; also called mPD-L1) FTITAPKDLYVVEYGSNVTMECRFPVERELDLLALVVYWEKEDEQVIQFVAGEEDLKPQHSNFRGRASLPKDQLLKGNAALQITDVKLQDAGVYCCIISYGGADYKRITLKVNAPY",Kd,3.2 ± 0.2 µM
